What was measured:
[1] = partition of amphotericin in dextran/PEG biphasic system; format: physicochemical; settings: 5% dextran T-500, 5% PEG-6000, pH 6.8, absorbance at 330 nm
[2] = 3H-thymidine uptake assay of GM-CSF growth stimulating activity; format: cell-based; settings: versus comparable amounts of unmodified GM-CSF, 0.0006 to 1.0ng/ml, Fig.3b
Text: (§1) A better approach is to perform a correlation analysis, plotting the response obtained with equivalent amounts of the modified and unmodified materials on an XY plot. Identical activity gives datum points randomly distributed about the line representing equal activity (the dashed lines). […] In contrast, the presence of inhibitory material, with or without loss of intrinsic activity, produces a departure, usually without convergence to the upper extremity.
(§2) Datum points are means of colony counts in triplicate dishes for three independent experiments (Fig. 3a) or of two independent thymidine uptake experiments (Fig 3b).

[3] = tested on: granulocyte-macrophage colony; experiment: granulocyte-macrophage colony assay (CFUgm) of GM-CSF growth stimulating activity; format: cell-based; settings: versus comparable amounts of unmodified GM-CSF, 0.1 to 8 ng/ml, Fig.3a
Text: as §1, §2

[4] = degradation of 125I-GM-CSF on storage at 4°C, FPLC profiles; format: physicochemical; settings: for relative amount of 125I, Peak 1: high molecular weight; for relative amount of 125I, Peak 2: intermediate fragments; for relative amount of 125I, Peak 3: low molecular weight
Text: This process is slowed by PEG modification. […] When supplied, ^125I-GM-CSF has little or no low molecular weight labelled species. […] There has been generation of intermediate and low molecular weight fragments in both samples. The former are commensurate in size with proteolytic cleavage products and the latter either with free iodine or very small fragments (i.e. < circa 1kDa). Pegylation reduces the loss of high molecular weight species.

[5] = blood clearance after subcutaneous injection with [125I]GM-CSF tracer; format: in vivo, BALB/c, male, 6-8 week-old mice; settings: late clearing component; for fold increase of t1/2 over the control figure: figures in parentheses; for t1/2: subcutaneous, […] body weight, mice
Experimental: BALB/c, male, 6-8 week-old mice, weighing approximately 20g, were pooled into groups of three per condition, with adlib access to food and water. The reaction products were evaluated by FPLC and the proportions of individual species were estimated by fitting summated Gaussian curves to the FPLC profiles and estimating the area under the curve corresponding to each individual peak and expressing this as a % of the total area for the whole FPLC profile (Table 4b). The inventors have previously established that the individual peaks seen at low TMPEG concentrations (peaks 0, 1, 2 and 3) correspond to GM-CSF, PEG1-GM-CSF, PEG2-GM-CSF, PEG3-GM-CSF, respectively. At high TMPEG concentrations the peaks are broader and less well resolved thus fitting of individual Gaussian curves over all regions of the FPLC profile may not be possible. Thus peak 3 and the peaks for more highly substituted GM-CSF (potentially PEG4-7-GM-CSF) have been pooled. The peak eluting with the void volume peak is well resolved from the PEG4-7-GM-CSF and presumably represents aggregates, the area of this peak was used to estimate the proportion of aggregated material (Table 4b).
The different PEGylated samples and unmodified GM-CSF (Hoechst), all containing <4% [^125I]GM-CSF (Amersham, 1222 Ci/mmol) to serve as a tracer, were adminstrated at a dose of 0.0524µg in 100µl (3.45 x 10^-12 mole; equivalent to 2.5µg/kg body weight) by subcutaneous injection. The amount of TMPEG concomitantly administered is also indicated in Table 4a (MPEG has been shown not to influence t1/2, but does influence egress from the subcutaneous site). Up to eight 25µl tail vein blood samples were collected from each mouse using capillary tubes at various time points ranging between 10 minutes and 80 hours, to give a minimum of three samples per time point. Samples from the capillary tubes were washed immediately into 1ml of PBS containing 50 I.U. of heparin. Radioactivity was determined using a gamma counter (LKB 1270 Rackgamma) results being shown in Fig. 6a (open circles for untreated material, other symbols as indicated on the figure). Clearances for the materials of reactions A and B were clearly biphasic, presumably reflecting the large proportion of unmodified material remaining in these preparations (Table 4b). Half-lives were calculated using linear regression (log concentration versus time) for the slower clearing component if biphasic elimination was present (solid lines Figure 6a; dotted lines give the 95% confidence intervals).

[6] = tissue distribution, organ:blood concentration ratios; format: in vivo, mice; settings: organ:blood concentration ratios versus GM-CSF, Fig.6b
Experimental: In order to establish the contributions to extended t1/2 we examined the tissue distribution of material prepared in an identical manner to reaction C, using an identical dose. At each of the times indicated, one aminal was sacrificed and organs/tissue including kidney, spleen, liver, lung, heart and femur were recovered and radioactivity was measured as above. […] The dotted and dashed lines indicate the blood levels of GM-CSF and PEG-GM-CSF respectively. The filled circles and open circles are the organ concentrations of PEG-GM-CSF and GM-CSF respectively. […] This is somewhat surprising since circa 24% of the reaction C mixture represents PEG1-GM-CSF (i.e. material below the renal threshold). […] Thus the degree of substitution desirable for individual targets will have to be assessed on a case-by-case basis. Table 4(A)

Compound: C[C@@H]1[C@H](O)[C@@H](C)/C=C/C=C/C=C/C=C/C=C/C=C/C=C/[C@H](O[C@@H]2O[C@H](C)[C@@H](O)[C@H](N)[C@@H]2O)C[C@@H]2O[C@](O)(C[C@@H](O)C[C@@H](O)[C@H](O)CC[C@@H](O)C[C@@H](O)CC(=O)O[C@H]1C)C[C@H](O)[C@H]2C(=O)O [control, amphotericin]
- % material in the top (PEG-rich) phase [1]: 4.9 ± 0.2%

Compound: Comparative Example 1: gm-CSF PEGylated with TMPEG made by a previously described method (WO90/04606, Example 1) [reference compound]
- growth stimulating activity as assessed by thymidine uptake [2]: loss of activity without significant inhibitory material
- growth stimulating activity as assessed by granulocyte-macrophage colony assay [3]: additional inhibitory activity

Compound: PEG-CM-CSF: 125I-GM-CSF exposed to TMPEG at a molar ratio of 305:1
- relative amount of 125I, Peak 1 ([4]; After 1 Month Storage at 4°C): 45.8
- relative amount of 125I, Peak 2 ([4]; After 1 Month Storage at 4°C): 8.9
- relative amount of 125I, Peak 3 ([4]; After 1 Month Storage at 4°C): 36.3
- relative amount of 125I, Peak 1 ([4]; Before Storage): 81.1
- relative amount of 125I, Peak 2 ([4]; Before Storage): 0
- relative amount of 125I, Peak 3 ([4]; Before Storage): 12.4

Compound: Reaction A: PEG-modified GM-CSF preparation, GM-CSF 0.524 µg/ml reacted with TMPEG 6.46 mg/ml
- fold increase of t1/2 over the control figure [5]: 7.2 fold
- t1/2 [5]: 11.7 h

Compound: Reaction B: PEG-modified GM-CSF preparation, GM-CSF 0.524 µg/ml reacted with TMPEG 19.75 mg/ml
- fold increase of t1/2 over the control figure [5]: 11.1 fold
- t1/2 [5]: 18.1 h

Compound: Reaction C: PEG-modified GM-CSF preparation, GM-CSF 0.524 µg/ml reacted with TMPEG 197.5 mg/ml
- fold increase of t1/2 over the control figure [5]: 10.3 fold
- t1/2 [5]: 16.8 h
- renal accumulation [6]: substantially reduced

Compound: Reaction D: PEG-modified GM-CSF preparation, GM-CSF 0.524 µg/ml reacted with TMPEG 459.7 mg/ml; contains >50% of aggregates
- fold increase of t1/2 over the control figure [5]: 15.3 fold
- t1/2 [5]: 25.1 h

Compound: gm-CSF PEGylated using the process of Example 1: gm-CSF coupled with TMPEG made by the process of the invention
- growth stimulating activity as assessed by thymidine uptake [2]: no significant loss
- growth stimulating activity as assessed by granulocyte-macrophage colony assay [3]: no significant loss
